According to US20060153853A1:
pKd: −log10 of the molar value.

Legend:
[1] = biological target: IGF-I (insulin-like growth factor I) (UniProt P05019); assay: SPR (BIAcore), IGF-I amine-coupled to CM5 chip, IGFBP-2 as analyte, Langmuir 1:1 fit
[2] = biological target: IGF-I (insulin-like growth factor I) (UniProt P05019); assay: SPR (BIAcore) on immobilised IGF-I; text summing up Table 2
[3] = biological target: IGF-II (insulin-like growth factor II) (UniProt P01344); assay: SPR (BIAcore), IGF-II amine-coupled to CM5 chip, IGFBP-2 as analyte, Langmuir 1:1 fit
IGF-II (insulin-like growth factor II), sequence (P01344 25-91 limits assumed): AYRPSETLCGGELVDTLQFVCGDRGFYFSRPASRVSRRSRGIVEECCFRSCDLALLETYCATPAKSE

[4] = biological target: IGF-I (insulin-like growth factor I) (UniProt P05019); assay: SPR (BIAcore), IGF-I amine-coupled to CM5 chip; ratio against hIGFBP-2
[5] = biological target: IGF-I (insulin-like growth factor I) (UniProt P05019); assay: method not stated in the legend (presumably BIAcore)
[6] = biological target: IGF-II (insulin-like growth factor II) (UniProt P01344); assay: SPR (BIAcore), IGF-II amine-coupled to CM5 chip; ratio against hIGFBP-2
[7] = biological target: IGF-II (insulin-like growth factor II) (UniProt P01344); assay: SPR (BIAcore) on immobilised IGF-II; text summing up Table 3
[8] = biological target: IGF-II (insulin-like growth factor II) (UniProt P01344); assay: method not stated in the legend (presumably BIAcore)

IGF-I (insulin-like growth factor I), sequence (P05019 49-118 limits assumed): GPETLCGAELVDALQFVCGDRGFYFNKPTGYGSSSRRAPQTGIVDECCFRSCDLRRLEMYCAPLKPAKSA

Substance	pKd [1]	koff [1]	kon [1]	fold decrease in affinity against native hIGFBP-2 [2]	pKd [3]	koff [3]	kon [3]	Rel. KD (KD of hIGFBP-2/KD of hIGFBP-2 mutant) [4]	fold lower affinity (reference not named, presumably native IGFBP-2) [5]	Rel. KD (KD of hIGFBP-2/KD of hIGFBP-2 mutant) [6]	fold decrease in affinity against native hIGFBP-2 [7]	fold lower affinity (reference not named, presumably native IGFBP-2) [8]
Des(114-170)His hIGFBP-2 (from UniProt P18065 36-113; P18065 207-325)	8.44	0.000425 s⁻¹	117000 M⁻¹ s⁻¹	5 fold	8.94	0.00013 s⁻¹	114000 M⁻¹ s⁻¹	0.26	2 fold	0.51	2 fold	–
Des (114-170) K180A K181A hIGFBP-2 (from UniProt P18065 36-113; P18065 207-325)	–	–	–	–	–	–	–	–	–	–	–	2 fold
